{
  "source": "patent US20100022454A1",
  "about": "(Novo Nordisk, published 2010)",
  "binders": {"B1": {"name": "PRL G129R (ligand)", "chain": "LPICPGGAARCQVTLRDLFDRAVVLSHYIHNLSSEMFSEFDKRYTHGRGFITKAINSCHTSSLATPEDKEQAQQMNQKDFLSLIVSILRSWNEPLYHLVTEVRGMQEAPEAILSKAVEIEEQTKRLLERMELIVSQVHPETKENEIYPVWSGLPSLQMADEESRLSAYYNLLHCLRRDSHKIDNYLKLLKCRIIHNNNC"}, "B2": {"name": "PRL S61A G129R (ligand)", "chain": "B1 chain with S61A"}, "B3": {"name": "human prolactin (PRL), wildtype (ligand)", "chain": "B1 chain with R129G"}},
  "key": {"[1]": {"target": "prolactin receptor (PRLR) on T47D cells", "experiment": "cell-based or functional assay"}, "[2]": {"target": "T1, hPRLR on stably transfected BaF/3 cells (human, UniProt P16471 25-622)", "T1 sequence (looked up)": "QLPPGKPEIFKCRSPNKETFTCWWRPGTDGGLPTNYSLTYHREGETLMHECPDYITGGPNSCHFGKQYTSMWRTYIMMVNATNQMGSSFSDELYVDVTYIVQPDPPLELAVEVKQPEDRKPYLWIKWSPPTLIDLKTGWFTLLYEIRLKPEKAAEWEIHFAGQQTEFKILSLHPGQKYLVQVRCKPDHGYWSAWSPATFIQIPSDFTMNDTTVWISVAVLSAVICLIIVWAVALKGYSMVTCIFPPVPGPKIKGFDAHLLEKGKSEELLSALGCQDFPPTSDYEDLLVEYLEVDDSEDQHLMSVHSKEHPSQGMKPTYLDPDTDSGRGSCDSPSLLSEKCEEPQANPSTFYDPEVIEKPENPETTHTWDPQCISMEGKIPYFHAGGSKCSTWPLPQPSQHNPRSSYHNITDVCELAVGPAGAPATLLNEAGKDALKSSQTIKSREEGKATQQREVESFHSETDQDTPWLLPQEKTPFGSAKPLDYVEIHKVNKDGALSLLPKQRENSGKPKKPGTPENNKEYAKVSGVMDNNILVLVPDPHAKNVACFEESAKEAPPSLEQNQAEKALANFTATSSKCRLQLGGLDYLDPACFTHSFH", "experiment": "cell-based or functional assay"}},
  "note": "Where a chain is given by its changes, count along the chain named. Names may count otherwise.",
  "data": [
    {"binder": "B1", "values": [
      {"measurement": "Apparent IC50 (nM) at 20 nM PRL; inhibition of PRL induced STAT3 phosphorylation, phospho-STAT3 ELISA on T47D cells", "setting": "[1]", "result": 69, "unit": "nM"}
    ]},
    {"binder": "B2", "values": [
      {"measurement": "Apparent IC50 (nM) at 20 nM PRL; inhibition of PRL induced STAT3 phosphorylation, phospho-STAT3 ELISA on T47D cells", "setting": "[1]", "result": 18, "unit": "nM"}
    ]},
    {"binder": "B3", "values": [
      {"measurement": "EC50 (nM) of PRL in the presence of 1 µM PRL S61A G129R, BaF3 proliferation assay (AlamarBlue), n = 9", "setting": "[2]", "result": 40, "unit": "nM"},
      {"measurement": "EC50 (nM), BaF3 proliferation assay (AlamarBlue), n = 31", "setting": "[2]", "result": 0.15, "unit": "nM"}
    ]}
  ]
}
